Measured values taken from PMC5995894.

Tested on: spDnmt2 (Schizosaccharomyces pombe)
Assay: fluorescence polarization
Conditions: binding buffer, salt, pH and temperature not given in the material (methods section text missing)

Substance: G34 tRNAAsp (unmodified)
- Kd: 960 nM

Substance: Q34 tRNAAsp
- Kd (queuosine at position 34 (queuine enzymatically incorporated by human TGT)): 670 nM
